Data published in US20040254135, “Modulation of metabolism of steroids and xenobiotics” (published 2004).

Legend:
[1] = target: SXR:RXR heterodimer (UniProt O75469;P19793 O75469:1-434,P19793:1-462); test: EMSA
[2] = target: CAR:RXR heterodimer (UniProt Q14994;P19793 Q14994:1-352,P19793:1-462); test: EMSA
Chain of CAR:RXR heterodimer (Q14994 whole entry, chain 1 of 2): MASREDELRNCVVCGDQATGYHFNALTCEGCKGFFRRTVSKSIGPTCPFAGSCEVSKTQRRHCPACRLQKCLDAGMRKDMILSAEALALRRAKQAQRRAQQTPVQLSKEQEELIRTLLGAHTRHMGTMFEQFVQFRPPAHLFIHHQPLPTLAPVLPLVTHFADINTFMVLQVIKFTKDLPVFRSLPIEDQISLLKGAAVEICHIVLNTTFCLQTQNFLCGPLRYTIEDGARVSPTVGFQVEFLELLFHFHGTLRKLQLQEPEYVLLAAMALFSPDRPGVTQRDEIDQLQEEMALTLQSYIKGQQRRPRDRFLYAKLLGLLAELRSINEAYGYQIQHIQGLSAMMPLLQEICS
Chain of CAR:RXR heterodimer (P19793 whole entry, chain 2 of 2): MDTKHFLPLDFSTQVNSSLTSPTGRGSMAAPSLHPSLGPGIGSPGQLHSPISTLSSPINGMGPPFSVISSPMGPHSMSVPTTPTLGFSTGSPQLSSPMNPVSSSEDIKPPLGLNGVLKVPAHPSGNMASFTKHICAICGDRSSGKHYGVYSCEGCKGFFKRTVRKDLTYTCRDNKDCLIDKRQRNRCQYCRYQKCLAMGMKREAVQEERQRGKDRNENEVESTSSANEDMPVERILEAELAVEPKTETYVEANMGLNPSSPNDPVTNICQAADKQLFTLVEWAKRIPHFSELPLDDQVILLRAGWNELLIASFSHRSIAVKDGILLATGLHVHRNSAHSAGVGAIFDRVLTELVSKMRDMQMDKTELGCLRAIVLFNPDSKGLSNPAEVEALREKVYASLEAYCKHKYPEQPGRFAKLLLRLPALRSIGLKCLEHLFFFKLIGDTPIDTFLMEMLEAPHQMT

Chain of SXR:RXR heterodimer (O75469 whole entry, chain 1 of 2): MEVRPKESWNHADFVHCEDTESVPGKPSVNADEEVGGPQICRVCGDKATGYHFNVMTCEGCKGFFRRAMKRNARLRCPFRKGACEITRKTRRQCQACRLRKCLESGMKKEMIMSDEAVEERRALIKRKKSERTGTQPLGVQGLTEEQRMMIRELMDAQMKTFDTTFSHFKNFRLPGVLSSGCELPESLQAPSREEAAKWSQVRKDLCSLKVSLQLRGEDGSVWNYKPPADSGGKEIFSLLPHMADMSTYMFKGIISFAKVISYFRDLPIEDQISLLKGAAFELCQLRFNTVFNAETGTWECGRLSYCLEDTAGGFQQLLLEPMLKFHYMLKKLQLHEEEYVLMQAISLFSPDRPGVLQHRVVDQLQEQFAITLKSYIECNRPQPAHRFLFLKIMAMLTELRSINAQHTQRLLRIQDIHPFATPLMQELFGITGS
Chain of SXR:RXR heterodimer (P19793 whole entry, chain 2 of 2): as the sequence (P19793 whole entry, chain 2 of 2) above

B1: UGT1A6 DR-3 (dsDNA)
DNA 1: ACTGTAGTTCATAAAGTTCACATGG
DNA 2: CCATGTGAACTTTATGAACTACAGT
**Q.** Does B1 bind [1]?
**A.** binds

**Q.** Does B1 bind [2]?
**A.** binds
